Reference: IntAct's records for PubMed 25487150

B1: Protein phosphatase PP2A regulatory subunit B (Schizosaccharomyces pombe (strain ATCC 38366 / 972)), Q12702 (parent)
chain: MDDIEDSLDQWKFAQCFGDKGDVEDITEADIISAVEFDHTGDYLATGDKGGRVVLFERNHSKKGCEYKFFTEFQSHEPEFDYLKSLEIEEKINKIRWCKRTNRAHFLLSTNDKTIKLWKLYEKNLKVVAENNLSDSFHSPMQGPLTTPSQLRLPRLNHHDMIIAAYPRRVYANAHAYHINSISVNSDAETYISADDLRINLWNLSISDHSFNIVDIKPENMEELTEVITSAEFHPINCNHLMYSSSKGNIKLLDLRQSALCDNPCKLFEDQEDQDSKSFFSEIISSISDVKFSQNGRYILSRDYLTLKIWDVNMEKAPVKTIPLHDVLRSKLCDLYENDCIFDKFECTFSGDDKHVLSGSYSNNFGIYPTDSSLPGDRGQIVLQADKAAFRARKSAANNVPKLNAVKNNDWRSQPQAAMGSASVGLDPDNLDYNKKILHASWHPFEDSVAIAATNNLFVFSKL
B2: Spindle pole body-associated protein cut12 (Schizosaccharomyces pombe (strain ATCC 38366 / 972)), O59755 (parent)
chain: MSETLNTPPTYAWVLKAFSSKLAGTVTKPVTKMSSYIEDAESDAELPQDAKEDLRPTETLTPLKSKAAQNGILKTPGTLQIKKTVNFKDISKDAATWNRPTKNNFLFTRLDDENPLMGHEEFKSPLLQSTPKPNINNPDNENKSKHDEFDNRYNININESYKNETKSNQRLGEDVPSKKKYPHSMDAEISKFKWDSNNNNDWSSLMKDCFRDVVNNNRKMKEIIKDVMIDTSQAFPSESLDEPDYTINLDAPRSSSGKYWKQKFSMLDSAHSDLELELTSIRERLESLILEKQEEINFWKQRCRALETEKIHNHQGQQSKYKGKEFVGNRFSQMRELYTAKPSPITTKVVSRPSQSDVREPQEQVPSKNLHRGADMSHLAAQMLTHSSKKSHTTNLIPSEGIISSTPISAASKVRMNLMQSNQTPTPAPFSIAAKKSHLPSKLSFPQDGGSLSSATTLQQLPKARVTPNVLSSLSSNLGKTNPTSVYQSKANVTTSADVEKPQVKVATSSRVDYDLKSPNQRTANAKKRLEERRRRRKLKLQELQLNS

Variants of: B1
Details: with pp11_schpo dis2, P13681
Target sequence in this assay (P13681 whole entry): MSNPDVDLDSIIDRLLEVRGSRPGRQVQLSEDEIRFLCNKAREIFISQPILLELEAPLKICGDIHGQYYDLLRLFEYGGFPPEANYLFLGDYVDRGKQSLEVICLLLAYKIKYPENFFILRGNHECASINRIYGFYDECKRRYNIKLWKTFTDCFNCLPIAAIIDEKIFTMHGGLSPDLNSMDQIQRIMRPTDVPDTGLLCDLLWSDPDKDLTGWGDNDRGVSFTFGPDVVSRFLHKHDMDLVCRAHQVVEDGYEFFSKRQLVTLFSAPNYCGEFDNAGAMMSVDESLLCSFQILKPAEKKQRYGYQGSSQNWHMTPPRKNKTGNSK

Variant	effect of a mutation on the interaction
MDDIEDSLDQWKFAQCFGDKGDVEDITEADIISAVEFDHTGDYLATGDKGGRVALFERNHSKKGCEYKFFTEFQSHEPEFDYLKSLEIEEKINKIRWCKRTNRAHFLLSTNDKTIKLWKLYEKNLKVVAENNLSDSFHSPMQGPLTTPSQLRLPRLNHHDMIIAAYPRRVYANAHAYHINSISVNSDAETYISADDLRINLWNLSISDHSFNIVDIKPENMEELTEVITSAEFHPINCNHLMYSSSKGNIKLLDLRQSALCDNPCKLFEDQEDQDSKSFFSEIISSISDVKFSQNGRYILSRDYLTLKIWDVNMEKAPVKTIPLHDVLRSKLCDLYENDCIFDKFECTFSGDDKHVLSGSYSNNFGIYPTDSSLPGDRGQIVLQADKAAFRARKSAANNVPKLNAVKNNDWRSQPQAAMGSASVGLDPDNLDYNKKILHASWHPFEDSVAIAATNNLFVFSKL [V54A]	decreasing interaction strength
MDDIEDSLDQWKFAQCFGDKGDVEDITEADIISAVEFDHTGDYLATGDKGGAVALAERNHSKKGCEYKFFTEFQSHEPEFDYLKSLEIEEKINKIRWCKRTNRAHFLLSTNDKTIKLWKLYEKNLKVVAENNLSDSFHSPMQGPLTTPSQLRLPRLNHHDMIIAAYPRRVYANAHAYHINSISVNSDAETYISADDLRINLWNLSISDHSFNIVDIKPENMEELTEVITSAEFHPINCNHLMYSSSKGNIKLLDLRQSALCDNPCKLFEDQEDQDSKSFFSEIISSISDVKFSQNGRYILSRDYLTLKIWDVNMEKAPVKTIPLHDVLRSKLCDLYENDCIFDKFECTFSGDDKHVLSGSYSNNFGIYPTDSSLPGDRGQIVLQADKAAFRARKSAANNVPKLNAVKNNDWRSQPQAAMGSASVGLDPDNLDYNKKILHASWHPFEDSVAIAATNNLFVFSKL [R52A;V54A;F56A]	disrupting interaction strength

Variants of: B2
Details: with pp11_schpo dis2, P13681
Target sequence in this assay (P13681 whole entry): as the sequence (P13681 whole entry) above

Variant	effect of a mutation on the interaction
MSETLNTPPTYAWVLKAFSSKLAGTVTKPVTKMSSYIEDAESDAELPQDAKEDLRPTETLTPLKSKAAQNGILKTPGTLQIKKTANAKDISKDAATWNRPTKNNFLFTRLDDENPLMGHEEFKSPLLQSTPKPNINNPDNENKSKHDEFDNRYNININESYKNETKSNQRLGEDVPSKKKYPHSMDAEISKFKWDSNNNNDWSSLMKDCFRDVVNNNRKMKEIIKDVMIDTSQAFPSESLDEPDYTINLDAPRSSSGKYWKQKFSMLDSAHSDLELELTSIRERLESLILEKQEEINFWKQRCRALETEKIHNHQGQQSKYKGKEFVGNRFSQMRELYTAKPSPITTKVVSRPSQSDVREPQEQVPSKNLHRGADMSHLAAQMLTHSSKKSHTTNLIPSEGIISSTPISAASKVRMNLMQSNQTPTPAPFSIAAKKSHLPSKLSFPQDGGSLSSATTLQQLPKARVTPNVLSSLSSNLGKTNPTSVYQSKANVTTSADVEKPQVKVATSSRVDYDLKSPNQRTANAKKRLEERRRRRKLKLQELQLNS [V85A;F87A]	decreasing interaction strength
MSETLNTPPTYAWVLKAFSSKLAGTVTKPVTKMSSYIEDAESDAELPQDAKEDLRPTETLTPLKSKAAQNGLLRTPGTLQIKKTANAKDISKDAATWNRPTKNNFLFTRLDDENPLMGHEEFKSPLLQSTPKPNINNPDNENKSKHDEFDNRYNININESYKNETKSNQRLGEDVPSKKKYPHSMDAEISKFKWDSNNNNDWSSLMKDCFRDVVNNNRKMKEIIKDVMIDTSQAFPSESLDEPDYTINLDAPRSSSGKYWKQKFSMLDSAHSDLELELTSIRERLESLILEKQEEINFWKQRCRALETEKIHNHQGQQSKYKGKEFVGNRFSQMRELYTAKPSPITTKVVSRPSQSDVREPQEQVPSKNLHRGADMSHLAAQMLTHSSKKSHTTNLIPSEGIISSTPISAASKVRMNLMQSNQTPTPAPFSIAAKKSHLPSKLSFPQDGGSLSSATTLQQLPKARVTPNVLSSLSSNLGKTNPTSVYQSKANVTTSADVEKPQVKVATSSRVDYDLKSPNQRTANAKKRLEERRRRRKLKLQELQLNS [I72L;K74R;V85A;F87A]	decreasing interaction strength
MSETLNTPPTYAWVLKAFSSKLAGTVTKPVTKMSSYIEDAESDAELPQDAKEDLRPTETLTPLKSKAAQNVILKTPGTLQIKKTVNFKDISKDAATWNRPTKNNFLFTRLDDENPLMGHEEFKSPLLQSTPKPNINNPDNENKSKHDEFDNRYNININESYKNETKSNQRLGEDVPSKKKYPHSMDAEISKFKWDSNNNNDWSSLMKDCFRDVVNNNRKMKEIIKDVMIDTSQAFPSESLDEPDYTINLDAPRSSSGKYWKQKFSMLDSAHSDLELELTSIRERLESLILEKQEEINFWKQRCRALETEKIHNHQGQQSKYKGKEFVGNRFSQMRELYTAKPSPITTKVVSRPSQSDVREPQEQVPSKNLHRGADMSHLAAQMLTHSSKKSHTTNLIPSEGIISSTPISAASKVRMNLMQSNQTPTPAPFSIAAKKSHLPSKLSFPQDGGSLSSATTLQQLPKARVTPNVLSSLSSNLGKTNPTSVYQSKANVTTSADVEKPQVKVATSSRVDYDLKSPNQRTANAKKRLEERRRRRKLKLQELQLNS [G71V]	decreasing interaction strength
MSETLNTPPTYAWVLKAFSSKLAGTVTKPVTKMSSYIEDAESDAELPQDAKEDLRPTETLTPLKSKAAQNVILKTPGTLQIKATANAKDISKDAATWNRPTKNNFLFTRLDDENPLMGHEEFKSPLLQSTPKPNINNPDNENKSKHDEFDNRYNININESYKNETKSNQRLGEDVPSKKKYPHSMDAEISKFKWDSNNNNDWSSLMKDCFRDVVNNNRKMKEIIKDVMIDTSQAFPSESLDEPDYTINLDAPRSSSGKYWKQKFSMLDSAHSDLELELTSIRERLESLILEKQEEINFWKQRCRALETEKIHNHQGQQSKYKGKEFVGNRFSQMRELYTAKPSPITTKVVSRPSQSDVREPQEQVPSKNLHRGADMSHLAAQMLTHSSKKSHTTNLIPSEGIISSTPISAASKVRMNLMQSNQTPTPAPFSIAAKKSHLPSKLSFPQDGGSLSSATTLQQLPKARVTPNVLSSLSSNLGKTNPTSVYQSKANVTTSADVEKPQVKVATSSRVDYDLKSPNQRTANAKKRLEERRRRRKLKLQELQLNS [G71V;K83A;V85A;F87A]	disrupting interaction strength
